# Paper PMC2911655
# B1: Yju3p (Saccharomyces cerevisiae S288C) (protein)
# chain: MAPYPYKVQTTVPELQYENFDGAKFGYMFWPVQNGTNEVRGRVLLIHGFGEYTKIQFRLMDHLSLNGYESFTFDQRGAGVTSPGRSKGVTDEYHVFNDLEHFVEKNLSECKAKGIPLFMWGHSMGGGICLNYACQGKHKNEISGYIGSGPLIILHPHTMYNKPTQIIAPLLAKFLPRVRIDTGLDLKGITSDKAYRAFLGSDPMSVPLYGSFRQIHDFMQRGAKLYKNENNYIQKNFAKDKPVIIMHGQDDTINDPKGSEKFIQDCPSADKELKLYPGARHSIFSLETDKVFNTVFNDMKQWLDKHTTTEAKP
# Substrate: CCCCCCCC/C=C\CCCCCCCC(=O)OCC(O)CO
# Assay: glycerol release, enzymatic glycerol kit, saturation curve
# Type: biochemical, Saccharomyces cerevisiae
# Conditions: pH 7.5, 37 °C, 20 min, substrate complexed to defatted BSA 1:1
protein,measurement,value
B1,Km,260 µM
